Experimental data as given in patent publication US10494657B2, “In vitro production of cyclic peptides” (The University Court of the University of Aberdeen, priority 2012, dated 2019).

How the values were obtained:
[1] = system: PatGmac; test: Macrocyclization of substrate peptides by PatGmac; assay type: biochemical, Prochloron sp.
Experimental: (§1) For other macrocyclization reactions, 100 μM peptide (e.g. VGAGIGFPAYDG (SEQ ID NO: 68), VGAGIGFPAYRG (SEQ ID NO: 69), or GVAGIGFPAYRG (SEQ ID NO: 84)) was incubated with 20 μM enzyme in a range of buffers for 24 h at 37° C. (see FIGS. 1 to 3).
The VPAPIPFPAYDG (SEQ ID NO: 85) peptide was chosen to match the residues equivalent to P8-P4′, the eight-residue cassette and four C-terminal residue macrocyclization signature.
(§2) PatGmac K598D produced cyclo[VGAGIGFP] with only 8% linear product, at a rate over an order of magnitude faster than wild-type PatGmac with VGAGIGFPAYDG (SEQ ID NO: 68) (FIGS. 2 and 3).
Target sequence in this assay (as listed by the source): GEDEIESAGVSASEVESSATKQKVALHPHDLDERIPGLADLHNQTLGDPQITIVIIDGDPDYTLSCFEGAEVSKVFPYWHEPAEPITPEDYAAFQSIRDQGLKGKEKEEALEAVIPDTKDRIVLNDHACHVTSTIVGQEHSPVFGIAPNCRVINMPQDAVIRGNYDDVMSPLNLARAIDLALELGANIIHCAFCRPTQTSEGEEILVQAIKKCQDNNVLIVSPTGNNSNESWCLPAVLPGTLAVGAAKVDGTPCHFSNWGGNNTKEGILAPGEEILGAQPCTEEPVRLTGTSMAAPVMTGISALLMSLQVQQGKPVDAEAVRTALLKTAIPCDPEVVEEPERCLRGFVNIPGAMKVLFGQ

[2] = system: […]; test: Macrocyclization reaction, final product ratios by LC-ESI MS ion counts; assay type: biochemical; conditions: for Cyclic ion count (%) (M + H = 699) / Linear ion count (%) (M + H = 717) / Unprocessed ion count (%) (M + H = 1123): 100 μM peptide, 50 μM enzyme, 120 h at 37° C.
Experimental: For macrocyclization reactions comparing final product ratios after substrate depletion, 100 μM peptide (VGAGIGFPAYDG) (SEQ ID NO: 68) was incubated with 50 μM enzyme in 150 mM NaCl, 10 mM HEPES pH 8, 1 mM TCEP for 120 h at 37° C. Samples were analyzed by ESI or MALDI MS (LCT, Micromass or 4800 MALDI TOF/TOF Analyser, ABSciex).
LC-MS was performed using a Phenomenex Sunfire C18 column (4.6 mm×150 mm). Solvent A was H2O containing 0.1% formic acid and solvent B was MeOH containing 0.1% formic acid. Gradient: 0-2 min 10% B; 2-22 min 10% B to 100% B; 22-27 min 100% B; 27-30 min 100% B to 10% B. High resolution mass spectral data were obtained from a Thermo Instruments MS system (LTQ XL/LTQ Orbitrap Discovery) coupled to a Thermo Instruments HPLC system (Accela PDA detector, Accela PDA autosampler and Accela Pump). The following conditions were used: capillary voltage 45 V, capillary temperature 320° C., auxiliary gas flow rate 10-20 arbitrary units, sheath gas flow rate 40-50 arbitrary units, spray voltage 4.5 kV, mass range 100-2000 amu (maximum resolution 30000).
The peptide VGAGIGFPAYDG (SEQ ID NO: 68) was used as a substrate for PatGmac in biochemical assays (FIG. 4C[[c]]). The ratio of macrocyclized to linear product using this substrate peptide was determined by ion counts obtained from liquid chromatography-electrospray ionization mass spectrometry (LC-ESI MS).

[3] = system: […]; test: as above; assay type: biochemical
[4] = system: […]; test: Macrocyclization of substrate with modified recognition sequence (Asp to Arg); assay type: biochemical
Experimental: as §1, §2

VGAGIGFPAYRG
macrocyclization of the substrate by PatGmac (rate) [1]: an order of magnitude faster than GVAGIGFPAYRG

VPAPIPFPAYDG [substrate mimic peptide, prolines mimic heterocycles]
macrocyclization of the substrate by PatGmac (rate) [1]: can in fact be macrocyclized by PatGmac (albeit slowly)

B1: PatGmacΔ1 (protein)
chain: GEDEIESAGVSASEVESSATKQKVALHPHDLDERIPGLADLHNQTLGDPQITIVIIDGDPDYTLSCFEGAEVSKVFPYWHEPAEPITKDRIVLNDHACHVTSTIVGQEHSPVFGIAPNCRVINMPQDAVIRGNYDDVMSPLNLARAIDLALELGANIIHCAFCRPTQTSEGEEILVQAIKKCQDNNVLIVSPTGNNSNESWCLPAVLPGTLAVGAAKVDGTPCHFSNWGGNNTKEGILAPGEEILGAQPCTEEPVRLTGTSMAAPVMTGISALLMSLQVQQGKPVDAEAVRTALLKTAIPCDPEVVEEPERCLRGFVNIPGAMKVLFGQ
product formed (macrocyclized vs linear) [2]: only linear VGAGIGFP | Cyclic ion count (%) (M + H = 699) [2]: 0% | Linear ion count (%) (M + H = 717) [2]: 92% | Unprocessed ion count (%) (M + H = 1123) [2]: 8% | substrate consumption rate relative to native protein [3]: approximately the rate of native protein

B2: PatGmacΔ2 (protein)
chain: GEDEIESAGVSASEVESSATKQKVALHPHDLDERIPGLADLHNQTLGDPQITIVIIDGDPDYTLSCFEGAEVSKVFPYWHEPAEPILNDHACHVTSTIVGQEHSPVFGIAPNCRVINMPQDAVIRGNYDDVMSPLNLARAIDLALELGANIIHCAFCRPTQTSEGEEILVQAIKKCQDNNVLIVSPTGNNSNESWCLPAVLPGTLAVGAAKVDGTPCHFSNWGGNNTKEGILAPGEEILGAQPCTEEPVRLTGTSMAAPVMTGISALLMSLQVQQGKPVDAEAVRTALLKTAIPCDPEVVEEPERCLRGFVNIPGAMKVLFGQ
product formed (macrocyclized vs linear) [2]: only linear VGAGIGFP | Cyclic ion count (%) (M + H = 699) [2]: 0% | Linear ion count (%) (M + H = 717) [2]: >99% | Unprocessed ion count (%) (M + H = 1123) [2]: <1% | substrate consumption rate relative to native protein [3]: approximately the rate of native protein

B3: PatGmac K594D (protein)
chain: GEDEIESAGVSASEVESSATKQKVALHPHDLDERIPGLADLHNQTLGDPQITIVIIDGDPDYTLSCFEGAEVSKVFPYWHEPAEPITPEDYAAFQSIRDQGLDGKEKEEALEAVIPDTKDRIVLNDHACHVTSTIVGQEHSPVFGIAPNCRVINMPQDAVIRGNYDDVMSPLNLARAIDLALELGANIIHCAFCRPTQTSEGEEILVQAIKKCQDNNVLIVSPTGNNSNESWCLPAVLPGTLAVGAAKVDGTPCHFSNWGGNNTKEGILAPGEEILGAQPCTEEPVRLTGTSMAAPVMTGISALLMSLQVQQGKPVDAEAVRTALLKTAIPCDPEVVEEPERCLRGFVNIPGAMKVLFGQ
ratio of macrocyclized and linear products with VGAGIGFPAYRG [4]: equal amounts of macrocyclized and linear products | reaction rate with VGAGIGFPAYRG [4]: reacted extremely slowly | product formed (macrocyclized vs linear) [2]: approximately one third of the product was macrocyclized | Cyclic ion count (%) (M + H = 699) [2]: 29% | Linear ion count (%) (M + H = 717) [2]: 71% | Unprocessed ion count (%) (M + H = 1123) [2]: 0% | substrate consumption rate relative to native protein [3]: approximately the rate of native protein

B4: PatGmac K598D (protein)
chain: GEDEIESAGVSASEVESSATKQKVALHPHDLDERIPGLADLHNQTLGDPQITIVIIDGDPDYTLSCFEGAEVSKVFPYWHEPAEPITPEDYAAFQSIRDQGLKGKEDEEALEAVIPDTKDRIVLNDHACHVTSTIVGQEHSPVFGIAPNCRVINMPQDAVIRGNYDDVMSPLNLARAIDLALELGANIIHCAFCRPTQTSEGEEILVQAIKKCQDNNVLIVSPTGNNSNESWCLPAVLPGTLAVGAAKVDGTPCHFSNWGGNNTKEGILAPGEEILGAQPCTEEPVRLTGTSMAAPVMTGISALLMSLQVQQGKPVDAEAVRTALLKTAIPCDPEVVEEPERCLRGFVNIPGAMKVLFGQ
linear product [4]: 8% | reaction rate with VGAGIGFPAYRG [4]: over an order of magnitude faster than wild-type PatGmac with […] | product formed (macrocyclized vs linear) [2]: only linear VGAGIGFP | Cyclic ion count (%) (M + H = 699) [2]: 0% | Linear ion count (%) (M + H = 717) [2]: 100% | Unprocessed ion count (%) (M + H = 1123) [2]: 0% | substrate consumption rate relative to native protein [3]: approximately the rate of native protein

B5: H618A: site-directed catalytic triad mutant of PatGmac (inactive mutant) (protein)
chain: GEDEIESAGVSASEVESSATKQKVALHPHDLDERIPGLADLHNQTLGDPQITIVIIDGDPDYTLSCFEGAEVSKVFPYWHEPAEPITPEDYAAFQSIRDQGLKGKEKEEALEAVIPDTKDRIVLNDAACHVTSTIVGQEHSPVFGIAPNCRVINMPQDAVIRGNYDDVMSPLNLARAIDLALELGANIIHCAFCRPTQTSEGEEILVQAIKKCQDNNVLIVSPTGNNSNESWCLPAVLPGTLAVGAAKVDGTPCHFSNWGGNNTKEGILAPGEEILGAQPCTEEPVRLTGTSMAAPVMTGISALLMSLQVQQGKPVDAEAVRTALLKTAIPCDPEVVEEPERCLRGFVNIPGAMKVLFGQ
product formed (macrocyclized vs linear) [2]: no detectable reaction

B6: PatGmac R589D K594D K598D (protein)
chain: GEDEIESAGVSASEVESSATKQKVALHPHDLDERIPGLADLHNQTLGDPQITIVIIDGDPDYTLSCFEGAEVSKVFPYWHEPAEPITPEDYAAFQSIDDQGLDGKEDEEALEAVIPDTKDRIVLNDHACHVTSTIVGQEHSPVFGIAPNCRVINMPQDAVIRGNYDDVMSPLNLARAIDLALELGANIIHCAFCRPTQTSEGEEILVQAIKKCQDNNVLIVSPTGNNSNESWCLPAVLPGTLAVGAAKVDGTPCHFSNWGGNNTKEGILAPGEEILGAQPCTEEPVRLTGTSMAAPVMTGISALLMSLQVQQGKPVDAEAVRTALLKTAIPCDPEVVEEPERCLRGFVNIPGAMKVLFGQ
ratio of macrocyclized and linear products with VGAGIGFPAYRG [4]: equal amounts of macrocyclized and linear products | reaction rate with VGAGIGFPAYRG [4]: reacted extremely slowly | product formed (macrocyclized vs linear) [2]: only produced linear substrate | Cyclic ion count (%) (M + H = 699) [2]: 0% | Linear ion count (%) (M + H = 717) [2]: 6% | Unprocessed ion count (%) (M + H = 1123) [2]: 94% | substrate consumption rate relative to native protein [3]: substantially slower
